Tests used:
Experiment in all cases: holdup assay
Parameters in all cases: key: below the threshold = too weak to quantify, mostly under pKd 3.1 to 4
[1] = target: MAGI1_6, Q96QZ7
[2] = target: PARD3_1, Q8TEW0
[3] = target: T1, PDZD7_2, Q9H5P4
T1 sequence (Q9H5P4 205-303, limits assumed, looked up): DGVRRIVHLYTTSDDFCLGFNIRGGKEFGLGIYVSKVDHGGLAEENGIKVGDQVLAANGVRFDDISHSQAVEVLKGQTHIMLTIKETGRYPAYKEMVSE

[4] = target: T2, SHANK2, Q9UPX8
T2 sequence (Q9UPX8 621-730, limits assumed, looked up): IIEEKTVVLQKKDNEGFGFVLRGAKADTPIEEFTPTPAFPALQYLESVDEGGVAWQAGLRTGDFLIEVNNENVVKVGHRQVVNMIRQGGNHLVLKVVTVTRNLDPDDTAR

[5] = target: T3, MPP1, Q00013
T3 sequence (Q00013 66-162, limits assumed, looked up): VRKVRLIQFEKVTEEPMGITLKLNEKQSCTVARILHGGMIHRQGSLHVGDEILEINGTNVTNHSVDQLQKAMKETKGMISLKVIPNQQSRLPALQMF

[6] = target: PARD3B_3, Q8TEW8
[7] = target: T4, PTPN13_5, Q12923
T4 sequence (Q12923 1877-1975, limits assumed, looked up): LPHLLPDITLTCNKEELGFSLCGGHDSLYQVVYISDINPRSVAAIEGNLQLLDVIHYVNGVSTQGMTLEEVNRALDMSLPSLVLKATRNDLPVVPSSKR

[8] = target: T5, USH1C_3, Q9Y6N9
T5 sequence (Q9Y6N9 447-547, limits assumed, looked up): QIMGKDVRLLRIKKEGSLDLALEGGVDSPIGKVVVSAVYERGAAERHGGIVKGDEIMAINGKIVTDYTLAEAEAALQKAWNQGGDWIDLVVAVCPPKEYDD

[9] = target: T6, USH1C_1, Q9Y6N9
T6 sequence (Q9Y6N9 82-179, limits assumed, looked up): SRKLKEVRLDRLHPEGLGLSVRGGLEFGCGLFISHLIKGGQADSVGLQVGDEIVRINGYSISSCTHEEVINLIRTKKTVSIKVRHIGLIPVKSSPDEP

[10] = target: T7, MPDZ_3, O75970
T7 sequence (O75970 372-473, limits assumed, looked up): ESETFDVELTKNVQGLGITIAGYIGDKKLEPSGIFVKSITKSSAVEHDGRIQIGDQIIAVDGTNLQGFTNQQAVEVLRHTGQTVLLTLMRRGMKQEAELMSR

[11] = target: T8, SNTB2, Q13425
T8 sequence (Q13425 110-208, limits assumed, looked up): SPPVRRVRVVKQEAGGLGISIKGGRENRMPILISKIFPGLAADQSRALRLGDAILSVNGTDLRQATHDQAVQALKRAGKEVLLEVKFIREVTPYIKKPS

[12] = target: T9, INTU, Q9ULD6
T9 sequence (Q9ULD6 180-273, limits assumed, looked up): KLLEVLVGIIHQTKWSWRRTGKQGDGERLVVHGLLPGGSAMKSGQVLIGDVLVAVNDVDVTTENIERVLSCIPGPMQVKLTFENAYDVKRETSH

[13] = target: LIMK1, P53667
[14] = target: T10, MPP5, Q8N3R9
T10 sequence (Q8N3R9 251-346, limits assumed, looked up): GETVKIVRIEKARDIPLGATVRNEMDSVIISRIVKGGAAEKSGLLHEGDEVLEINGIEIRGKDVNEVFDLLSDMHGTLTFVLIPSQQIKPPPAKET

[15] = target: AHNAK2, Q8IVF2
[16] = target: T11, PDZD8, Q8NEN9
T11 sequence (Q8NEN9 361-459, limits assumed, looked up): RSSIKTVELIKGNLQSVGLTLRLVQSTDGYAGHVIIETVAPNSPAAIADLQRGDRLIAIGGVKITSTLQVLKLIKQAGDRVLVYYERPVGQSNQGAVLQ

[17] = target: PTPN13_2, Q12923
[18] = target: RGS3, P49796-9
[19] = target: T12, SIPA1L3, O60292
T12 sequence (O60292 961-1052, limits assumed, looked up): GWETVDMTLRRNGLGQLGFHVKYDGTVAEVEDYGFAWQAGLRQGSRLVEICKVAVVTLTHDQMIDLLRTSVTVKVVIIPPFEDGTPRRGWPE

[20] = target: PDLIM4, P50479
[21] = target: T13, MPDZ_6, O75970
T13 sequence (O75970 1003-1099, limits assumed, looked up): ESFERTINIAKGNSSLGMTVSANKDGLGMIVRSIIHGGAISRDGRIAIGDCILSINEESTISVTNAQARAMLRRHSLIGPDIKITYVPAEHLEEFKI

[22] = target: PREX1_1, Q8TCU6
[23] = target: DVL2, O14641
[24] = plain residues with an end cap or a label only (N-terminal biotin on a linker: ttds)
[25] = plain residues with an end cap or a label only (N-terminal biotin on a linker: none)

Sequence of PREX1_1, Q8TCU6 (Q8TCU6 608-718): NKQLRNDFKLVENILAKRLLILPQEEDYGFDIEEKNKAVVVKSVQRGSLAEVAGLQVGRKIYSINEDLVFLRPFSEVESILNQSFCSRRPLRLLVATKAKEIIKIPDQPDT
Sequence of AHNAK2, Q8IVF2 (Q8IVF2 108-193): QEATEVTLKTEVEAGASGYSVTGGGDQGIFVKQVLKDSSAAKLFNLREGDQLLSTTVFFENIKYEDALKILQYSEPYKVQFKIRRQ
Sequence of PARD3_1, Q8TEW0 (Q8TEW0 264-372): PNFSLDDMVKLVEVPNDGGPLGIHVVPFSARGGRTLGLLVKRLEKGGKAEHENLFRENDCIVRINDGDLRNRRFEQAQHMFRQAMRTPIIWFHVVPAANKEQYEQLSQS
Sequence of RGS3, P49796-9 (P49796 other isoform, or with tags, fused parts or gaps): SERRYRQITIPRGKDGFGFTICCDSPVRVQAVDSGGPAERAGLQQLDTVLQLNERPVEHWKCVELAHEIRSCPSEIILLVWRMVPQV
Sequence of PARD3B_3, Q8TEW8 (Q8TEW8 490-594): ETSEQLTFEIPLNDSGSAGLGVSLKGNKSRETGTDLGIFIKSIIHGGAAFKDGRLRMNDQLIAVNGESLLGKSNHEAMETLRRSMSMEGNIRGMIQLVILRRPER
Sequence of LIMK1, P53667 (P53667 155-268): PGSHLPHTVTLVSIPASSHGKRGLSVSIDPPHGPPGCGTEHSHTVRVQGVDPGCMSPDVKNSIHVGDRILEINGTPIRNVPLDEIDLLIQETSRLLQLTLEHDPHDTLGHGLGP
Sequence of PTPN13_2, Q12923 (Q12923 1363-1462): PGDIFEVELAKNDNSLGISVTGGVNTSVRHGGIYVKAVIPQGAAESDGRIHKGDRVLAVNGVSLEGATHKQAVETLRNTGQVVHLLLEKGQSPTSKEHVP
Sequence of PDLIM4, P50479 (P50479 1-83): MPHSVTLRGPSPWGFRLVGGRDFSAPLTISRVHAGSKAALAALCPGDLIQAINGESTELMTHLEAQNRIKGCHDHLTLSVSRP
Sequence of DVL2, O14641 (O14641 260-359): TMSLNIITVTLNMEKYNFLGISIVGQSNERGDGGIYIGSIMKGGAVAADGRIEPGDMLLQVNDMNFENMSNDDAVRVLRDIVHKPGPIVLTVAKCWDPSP
Sequence of MAGI1_6, Q96QZ7 (Q96QZ7 1146-1238): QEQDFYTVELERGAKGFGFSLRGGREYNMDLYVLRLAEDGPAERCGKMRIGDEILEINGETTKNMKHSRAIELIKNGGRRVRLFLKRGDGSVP

RLPKIKETTV [FRMPD4, Q14CM0]
pKd [1, 24]: 4.57
pKd [2, 24]: below the threshold
pKd [3, 24]: below the threshold
pKd [4, 24]: below the threshold
pKd [5, 24]: 5.3
pKd [6, 24]: below the threshold
pKd [7, 24]: below the threshold
pKd [8, 24]: below the threshold
pKd [9, 24]: below the threshold
pKd [10, 24]: below the threshold
pKd [11, 24]: 5.36
pKd [12, 24]: below the threshold
pKd [13, 24]: 4.48
pKd [14, 24]: below the threshold
pKd [15, 24]: below the threshold
pKd [16, 24]: below the threshold
pKd [17, 24]: 4.31
pKd [18, 24]: below the threshold
pKd [19, 24]: below the threshold
pKd [20, 24]: below the threshold
pKd [21, 24]: below the threshold
pKd [22, 24]: 4.75
pKd [23, 24]: below the threshold

NLNSSRVPDLLV [SARS-CoV2-E, P0DTC4]
pKd [1, 25]: below the threshold
pKd [2, 25]: below the threshold
pKd [3, 25]: below the threshold
pKd [4, 25]: below the threshold
pKd [5, 25]: below the threshold
pKd [6, 25]: below the threshold
pKd [7, 25]: below the threshold
pKd [8, 25]: below the threshold
pKd [9, 25]: below the threshold
pKd [10, 25]: below the threshold
pKd [11, 25]: below the threshold
pKd [12, 25]: below the threshold
pKd [13, 25]: below the threshold
pKd [14, 25]: 4.01
pKd [15, 25]: below the threshold
pKd [16, 25]: below the threshold
pKd [17, 25]: below the threshold
pKd [18, 25]: below the threshold
pKd [19, 25]: below the threshold
pKd [20, 25]: below the threshold
pKd [21, 25]: below the threshold
pKd [22, 25]: below the threshold
pKd [23, 25]: below the threshold

SGSRPSATVV [HPV73-E6, Q82005]
pKd [1, 24]: below the threshold
pKd [2, 24]: below the threshold
pKd [3, 24]: below the threshold
pKd [4, 24]: below the threshold
pKd [5, 24]: 4.14
pKd [6, 24]: below the threshold
pKd [7, 24]: below the threshold
pKd [8, 24]: below the threshold
pKd [9, 24]: below the threshold
pKd [10, 24]: below the threshold
pKd [11, 24]: 4.13
pKd [12, 24]: 4.58
pKd [13, 24]: below the threshold
pKd [14, 24]: below the threshold
pKd [15, 24]: below the threshold
pKd [16, 24]: 4.04
pKd [17, 24]: below the threshold
pKd [18, 24]: below the threshold
pKd [19, 24]: 4.17
pKd [20, 24]: below the threshold
pKd [21, 24]: below the threshold
pKd [22, 24]: below the threshold
pKd [23, 24]: below the threshold

Reference: PMC9482650, “Quantitative fragmentomics allow affinity mapping of interactomes” (Nature Communications, 2022)
